Measured values taken from US7262005.
code Z = not defined here; fmk = not defined here

How the values were obtained:
[1] = biological target: caspases; test: cell-based or functional assay
[2] = biological target: 2XUb-DEVD-Bla fusion protein, P62593
Sequence of 2XUb-DEVD-Bla fusion protein, P62593 (P62593 whole entry, looked up, the tested form may be a part): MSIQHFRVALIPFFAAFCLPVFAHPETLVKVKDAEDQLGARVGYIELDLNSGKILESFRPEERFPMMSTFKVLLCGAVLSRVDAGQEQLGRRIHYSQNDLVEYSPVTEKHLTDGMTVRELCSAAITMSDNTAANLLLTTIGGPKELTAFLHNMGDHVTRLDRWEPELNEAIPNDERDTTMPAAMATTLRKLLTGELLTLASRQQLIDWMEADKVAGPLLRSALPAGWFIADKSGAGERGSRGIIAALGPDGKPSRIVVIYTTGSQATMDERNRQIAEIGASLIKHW

| Binder | 460/530 emission ratio, + αFas/+ inh/+ chx, Jurkat cells expressing 2XUb-DEVD-Bla, 10 µM Z-VAD-fmk (460/530 emission ratio) [1] | IC50 of inhibition of anti-Fas-induced caspase activity in Jurkat cells expressing 2XUb-DEVD-Bla (β-lactamase activity, CCF2 460/530 nm ratio) [1] [µM] | in vitro cleavage of the 35S-labeled fusion by 25 nM purified caspase-3, SDS-PAGE and autoradiography [2] |
| --- | --- | --- | --- |
| {code Z}-Val-Ala-Asp-fmk (reading uncertain; also: printed as Z-VAD-fmk) [Z-VAD-fmk] | 0.08 | 5 | – |
| purified recombinant caspase-3 (protein) SGISLDNSYKMDYPEMGLCIIINNKNFHKSTGMTSRSGTDVDAANLRETFRNLKYEVRNKNDLTREEIVELMRDVSKEDHSKRSSFVCVLLSHGEEGIIFGTNGPVDLKKITNFFRGDRCRSLTGKPKLFIIQACRGTELDCGIETDSGVDDDMACHKIPVEADFLYAYSTAPGYYSWRNSKDGSWFIQSLCAMLKQYADKLEFMHILTRVNRKVATEFESFSFDATFHAKKQIPCIVSMLTKELYFYH | – | – | over 90% cleavage within 5 minutes |
